Positions count from the first letter of the chain named. “And” between values parts separate entries of the source, which are not always exact repeats. Identical values can stand only once. Each block holds one binder with its values, some of them ahead of it.
Target: T1, human PD-1 (human, UniProt Q15116 25-167, limits assumed)
T1 construct: also called huPD-1
Assay: BLI, antibody on AHC tip, soluble PD-1

T1 sequence (Q15116 25-167 limits assumed): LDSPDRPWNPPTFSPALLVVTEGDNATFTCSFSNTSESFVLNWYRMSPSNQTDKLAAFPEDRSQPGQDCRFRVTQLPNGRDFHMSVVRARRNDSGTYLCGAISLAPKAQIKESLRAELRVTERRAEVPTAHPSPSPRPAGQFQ

B1: PMAB134 (bispecific antibody, human IgG1, kappa)
heavy: EVQLLESGGGLVQPGGSLRLSCAASGFTFSNSDMSWVRQAPGKGLEWVSGITISGGSTYYADSVKGRFTISRDNSKNTLYLQMNSLRAEDTAVYYCARGRGGSGWLDYWGQGTLVTVSSASTKGPSVFPLAPSSKSTSGGTAALGCLVKDYFPEPVTVSWNSGALTSGVHTFPAVLQSSGLYSLSSVVTVPSSSLGTQTYICNVNHKPSNTKVDKKVEPKSCDKTHTCPPCPAPEAAGAPSVFLFPPKPKDTLMISRTPEVTCVVVDVSHEDPEVKFNWYVDGVEVHNAKTKPREEQYNSTYRVVSVLTVLHQDWLNGKEYKCKVSNKALPAPIEKTISKAKGQPREPQVYTLPPSREEMTKNQVSLTCLVKGFYPSDIAVEWESNGQPENNYKTTPPVLDSDGSFFLYSKLTVDKSRWQQGNVFSCSVMHEALHNHYTQKSLSLSPGGGGGSGGGGSGGGGSEVQLLESGGGLVQPGGSLRLSCAASGFTFSDFWMHWVRQAPGKGLEWISYISGDSGYTNYADSVKGRFTISRDNSKNTLYLQMNSLRAEDTAVYYCARDRPYYYYMDVWGKGTTVTVSSGGGGSGGGGSGGGGSGGGGSDIQMTQSPSSLSASVGDRVTITCRASQSVSRSLAWYQQKPGKAPKLLIYAASSLQSGVPSRFSGSGSGTDFTLTISSLQPEDFATYYCQQYKSYPVTFGQGTKVEIK
light: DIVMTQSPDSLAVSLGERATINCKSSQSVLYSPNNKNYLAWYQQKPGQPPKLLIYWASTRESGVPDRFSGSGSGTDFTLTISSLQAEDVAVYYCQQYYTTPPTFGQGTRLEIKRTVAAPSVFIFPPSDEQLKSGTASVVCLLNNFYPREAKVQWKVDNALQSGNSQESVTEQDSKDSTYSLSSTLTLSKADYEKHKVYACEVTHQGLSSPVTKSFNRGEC
Kd: 6 nM and 11.6 nM and 11.1 nM

B2: PMAB140 (bispecific antibody, human IgG1, kappa)
heavy: B1 heavy with I53G
light: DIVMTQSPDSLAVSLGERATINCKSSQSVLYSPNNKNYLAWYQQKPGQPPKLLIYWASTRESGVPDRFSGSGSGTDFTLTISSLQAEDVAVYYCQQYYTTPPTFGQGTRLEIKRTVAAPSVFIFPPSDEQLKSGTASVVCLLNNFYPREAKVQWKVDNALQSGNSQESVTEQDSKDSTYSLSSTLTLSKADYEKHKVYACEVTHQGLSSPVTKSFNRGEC
Kd: 22 nM

B3: PMAB143 (bispecific antibody, human IgG1, kappa)
heavy: B1 heavy
light: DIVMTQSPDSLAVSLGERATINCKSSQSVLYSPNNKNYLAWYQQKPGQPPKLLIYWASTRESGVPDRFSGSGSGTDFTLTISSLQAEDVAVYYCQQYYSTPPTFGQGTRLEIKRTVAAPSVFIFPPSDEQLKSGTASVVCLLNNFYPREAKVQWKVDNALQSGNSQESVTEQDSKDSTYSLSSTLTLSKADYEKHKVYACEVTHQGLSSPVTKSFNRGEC
Kd: 17 nM

B6: PMAB136 (bispecific antibody, human IgG1, kappa)
heavy: B1 heavy with S32Y
light: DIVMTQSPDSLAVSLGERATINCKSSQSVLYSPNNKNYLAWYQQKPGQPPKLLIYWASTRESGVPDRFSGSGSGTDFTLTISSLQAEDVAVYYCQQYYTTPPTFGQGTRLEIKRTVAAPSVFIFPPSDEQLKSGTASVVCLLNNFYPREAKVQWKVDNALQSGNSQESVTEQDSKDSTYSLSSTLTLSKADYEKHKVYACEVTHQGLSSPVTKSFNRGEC
Kd: 36 nM

B8: PMAB135 (bispecific antibody, human IgG1, kappa)
heavy: B1 heavy with N31S
light: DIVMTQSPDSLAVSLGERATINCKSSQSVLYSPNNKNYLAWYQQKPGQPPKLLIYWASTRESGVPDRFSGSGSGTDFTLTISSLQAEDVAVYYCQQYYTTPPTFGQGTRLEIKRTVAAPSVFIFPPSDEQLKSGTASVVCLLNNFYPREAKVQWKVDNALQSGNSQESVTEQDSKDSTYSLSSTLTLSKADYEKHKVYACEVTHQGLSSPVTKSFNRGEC
Kd: 3 nM

B11: PMAB142 (bispecific antibody, human IgG1, kappa)
heavy: B1 heavy
light: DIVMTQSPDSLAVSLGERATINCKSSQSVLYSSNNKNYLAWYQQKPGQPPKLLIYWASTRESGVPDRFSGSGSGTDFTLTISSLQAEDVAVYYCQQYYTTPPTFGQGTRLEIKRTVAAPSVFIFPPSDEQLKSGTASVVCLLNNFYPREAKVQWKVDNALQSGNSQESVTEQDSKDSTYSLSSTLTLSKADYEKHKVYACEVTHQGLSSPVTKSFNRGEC
Kd: 33 nM

B12: PMAB139 (bispecific antibody, human IgG1, kappa)
heavy: B1 heavy with T52S
light: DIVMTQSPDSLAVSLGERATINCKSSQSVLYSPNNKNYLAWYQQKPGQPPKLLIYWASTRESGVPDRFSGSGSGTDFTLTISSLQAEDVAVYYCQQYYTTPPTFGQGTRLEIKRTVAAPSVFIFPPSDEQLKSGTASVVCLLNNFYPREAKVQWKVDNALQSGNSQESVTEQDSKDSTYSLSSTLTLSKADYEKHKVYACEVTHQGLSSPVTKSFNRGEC
Kd: 50 nM

B13: PMAB138 (bispecific antibody, human IgG1, kappa)
heavy: B1 heavy with G50A
light: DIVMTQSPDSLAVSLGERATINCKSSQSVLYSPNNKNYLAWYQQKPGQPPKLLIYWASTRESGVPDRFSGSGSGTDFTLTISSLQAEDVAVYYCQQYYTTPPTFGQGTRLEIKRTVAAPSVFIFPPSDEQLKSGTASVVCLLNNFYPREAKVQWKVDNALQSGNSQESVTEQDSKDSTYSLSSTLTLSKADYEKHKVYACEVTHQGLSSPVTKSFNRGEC
Kd: 53 nM

Now from value to binder:

Kd: 1300 nM
B4: PMAB178 (bispecific antibody, human IgG1, kappa)
heavy: B1 heavy with N31S, S32Y, I53G
light: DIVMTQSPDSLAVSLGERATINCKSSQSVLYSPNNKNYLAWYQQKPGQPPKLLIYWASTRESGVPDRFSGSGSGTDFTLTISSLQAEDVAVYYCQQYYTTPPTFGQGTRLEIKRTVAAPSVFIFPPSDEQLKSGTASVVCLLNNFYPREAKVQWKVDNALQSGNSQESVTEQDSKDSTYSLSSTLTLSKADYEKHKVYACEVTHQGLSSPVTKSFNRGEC

Kd: 77.1 nM
B5: PMAB175 (bispecific antibody, human IgG1, kappa)
heavy: B1 heavy with N31S, S32Y
light: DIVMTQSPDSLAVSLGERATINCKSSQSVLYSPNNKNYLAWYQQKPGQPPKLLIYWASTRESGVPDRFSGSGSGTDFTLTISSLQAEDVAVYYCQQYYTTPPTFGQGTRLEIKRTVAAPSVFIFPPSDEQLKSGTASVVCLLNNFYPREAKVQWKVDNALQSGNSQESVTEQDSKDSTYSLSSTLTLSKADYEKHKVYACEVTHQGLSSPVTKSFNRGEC

Kd: 894 nM
B7: PMAB176 (bispecific antibody, human IgG1, kappa)
heavy: B1 heavy with N31S, S32Y, G50A
light: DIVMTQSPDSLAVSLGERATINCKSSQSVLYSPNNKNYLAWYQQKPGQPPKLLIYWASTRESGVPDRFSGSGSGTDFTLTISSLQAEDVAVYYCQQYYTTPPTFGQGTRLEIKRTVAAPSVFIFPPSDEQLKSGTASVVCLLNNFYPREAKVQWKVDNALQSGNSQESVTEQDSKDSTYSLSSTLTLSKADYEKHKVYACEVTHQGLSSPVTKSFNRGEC

Kd: 11300 nM
B9: PMAB183 (bispecific antibody, human IgG1, kappa)
heavy: B1 heavy with G50A, T52S, I53G
light: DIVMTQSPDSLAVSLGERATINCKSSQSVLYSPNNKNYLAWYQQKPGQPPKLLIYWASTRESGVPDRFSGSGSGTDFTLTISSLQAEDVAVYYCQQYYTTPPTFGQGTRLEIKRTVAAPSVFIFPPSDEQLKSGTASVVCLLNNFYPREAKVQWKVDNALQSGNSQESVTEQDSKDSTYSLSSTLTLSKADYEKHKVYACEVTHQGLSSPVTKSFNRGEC

Kd: 809 nM
B10: PMAB177 (bispecific antibody, human IgG1, kappa)
heavy: B1 heavy with N31S, S32Y, T52S
light: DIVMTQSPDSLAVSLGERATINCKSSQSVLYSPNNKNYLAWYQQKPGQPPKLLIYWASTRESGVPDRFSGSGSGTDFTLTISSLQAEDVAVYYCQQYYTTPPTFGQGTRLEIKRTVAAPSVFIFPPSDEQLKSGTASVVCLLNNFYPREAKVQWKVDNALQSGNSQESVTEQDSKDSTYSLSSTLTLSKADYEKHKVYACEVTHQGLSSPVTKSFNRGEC

Reference: patent US20240301064A1 (published 2024)
